# T1: RsmQ (Pseudomonas fluorescens SBW25 plasmid …, UniProt UPI00015066B5 1-62)
# T1 sequence: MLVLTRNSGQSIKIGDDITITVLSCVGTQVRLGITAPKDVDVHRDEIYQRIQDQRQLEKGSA
# Target: T1, RsmQ
# Experiment: SPR (ReDCaT); 500 nM protein; HBS-EP+ (10 mM HEPES, 150 mM NaCl, 3 mM EDTA, 0.05% v/v Tween 20, pH 7.4), 20 C, Biacore 8K, ReDCaT SA chip; high values mean tight binding
# Details: protein: recombinant; tags: C-terminal TEV site + 6xHis; chain copies: 2
row,Molecule,binding signal
1,GGCCGCCCTCTCCGCTGATGGTCGTCTCG (ssDNA) [PFLU3427],14.53 ± 0.0808 %Rmax
2,GAAACATTCCGAACGGAGAAAAAACTGGC (ssDNA) [PFLU2486],19.6 ± 0.424 %Rmax
3,TCCAGTTTAGGCTTCTAAGGAGCACACCC (ssDNA) [PFLU4414],24 ± 0.491 %Rmax
4,TCTGTAATGACCACGGAAAAAGTGAAGTA (ssDNA) [PFLU4891],28.28 ± 0.104 %Rmax
5,AGTCCTTTAGGCAAGGAGTTAATTGTCGT (ssDNA) [PFLU5529],41.03 ± 0.156 %Rmax
6,CGCATCATTTACATGGAAGCGAGTAATCA (ssDNA) [PFLU3467],26.05 ± 0.116 %Rmax
7,AACAATAATGCACATGGAGTAGCGTCGATG (ssDNA) [PFLU0923],76.5 ± 1.26 %Rmax
8,AAGACCAGATCCAGGGATATGACGACGCA (ssDNA) [PFLU5652],24.3 ± 0.196 %Rmax
9,TGCCCCCTTCAGATGGAGTTTCCCCCCGC (ssDNA) [PFLU5986],23.9 ± 0.356 %Rmax
10,CACCAACCCTGCACGTGGAGAGAACAACA (ssDNA) [PFLU5567],19.8 ± 0.479 %Rmax
11,CCGCGCACGGAAGCGCAAAC (structured_DNA) [Full_Bind_HP (ACGGA hairpin)],61.28 ± 0.301 %Rmax
12,GTGAGGACTTTAATGGACGACAACAAGAA (ssDNA) [PFLU1189],24.64 ± 0.224 %Rmax
13,TTATTATTCGCCAGGGACGGCATTCGGGG (structured_DNA) [PFLU3378],130.9 ± 0.261 %Rmax
14,CAAAAATATAAATACCCGCGGGTGAAGTC (ssDNA) [PFLU2358],21.4 ± 0.255 %Rmax
15,TTCTAATCGCCTAAGGAGCATTGAGATGT (ssDNA) [PFLU4548],25.35 ± 0.144 %Rmax
16,CGCCATTCTTCAAGGGAGAGCCGTGTGGC (ssDNA) [PFLU1516],63.68 ± 0.594 %Rmax
17,CGCCCGTGATCCCATGGAAACTCGAAGACT (ssDNA) [PFLU0998],19.2 ± 0.463 %Rmax
18,TCATTACCCTGCAGGGACCAAATCAACTG (ssDNA) [PFLU5860],23.7 ± 0.45 %Rmax
19,GGAAGTTTTACTAGGGAAGTTGCTATTGC (ssDNA) [PFLU4443 (fleQ)],83.36 ± 0.145 %Rmax
20,GAAGACTTCGGCATGGAAGCGGCGCGAAC (ssDNA) [PFLU4726],52.22 ± 0.504 %Rmax
21,AACGGTTCAAATATTCAGAGGATCCAGCT (ssDNA) [PFLU6118],21.2 ± 0.215 %Rmax
22,GACATTAATCATATGGAGACACCCTCATG (ssDNA) [PFLU4688],18.86 ± 0.102 %Rmax
23,CTGCGCTCCCGATCCTGGATTTTCCGGCC (ssDNA) [PFLU5864],19.55 ± 0.081 %Rmax
24,CCGCGCAGGAAGCGCAAAC (structured_DNA) [Bind_HP (GGA hairpin)],97.319 ± 0.0324 %Rmax
25,TATAAGACTCGTACCCCGGAGCGCTCTCG (ssDNA) [PFLU4968],17.5 ± 0.242 %Rmax
26,ACTCAACCAGGAATAAGGAATACAAGAAA (ssDNA) [PFLU0296],29.5 ± 0.904 %Rmax

# Tested on: RsmQ H43A (Pseudomonas fluorescens SBW25 plasmid pQBR103)
# Experiment: SPR
# Details: 100 nM protein; listed as None 2; SPR (ReDCaT SA chip, Biacore 8K): 10 mM HEPES, 150 mM NaCl, 3 mM EDTA, 0.05% Tween 20, pH 7.4, 20 C; RsmQ 100 and 1000 nM (Fig 4: 100-1000 nM)
row,Molecule,binding signal
1,CCGCGCACCCAGCGCAAACCCTACCCTACGTCCTCCTGC [NoBind_HP_2],-2.51 %Rmax

# Tested on: RsmQ R44A (Pseudomonas fluorescens SBW25 plasmid pQBR103)
# Experiment: SPR
# Details: 100 nM protein; listed as None 2; SPR (ReDCaT SA chip, Biacore 8K): 10 mM HEPES, 150 mM NaCl, 3 mM EDTA, 0.05% Tween 20, pH 7.4, 20 C; RsmQ 100 and 1000 nM (Fig 4: 100-1000 nM)
row,Molecule,binding signal
1,CCGCGCACCCAGCGCAAACCCTACCCTACGTCCTCCTGC [NoBind_HP_2],-1.89 %Rmax

# Tested on: RsmQ (Pseudomonas fluorescens SBW25 plasmid pQBR103)
# Experiment: SPR
# Details: 100 nM protein; mean of 0.445 and 0.102; listed as None 2; SPR (ReDCaT SA chip, Biacore 8K): 10 mM HEPES, 150 mM NaCl, 3 mM EDTA, 0.05% Tween 20, pH 7.4, 20 C; RsmQ 100 and 1000 nM (Fig 4: 100-1000 nM)
row,Molecule,binding signal
1,CCGCGCACCCAGCGCAAACCCTACCCTACGTCCTCCTGC [NoBind_HP_2],0.27 %Rmax

# Same assay, conditions: 100 nM protein; mean of 102.98 and 94.19; SPR (ReDCaT SA chip, Biacore 8K): 10 mM HEPES, 150 mM NaCl, 3 mM EDTA, 0.05% Tween 20, pH 7.4, 20 C; RsmQ 100 and 1000 nM (Fig 4: 100-1000 nM)
row,Molecule,binding signal
1,CCGCGCAGGAAGCGCAAACCCTACCCTACGTCCTCCTGC [Bind_HP (GGA hairpin)],98.6 %Rmax

# Same assay, conditions: SPR (ReDCaT SA chip, Biacore 8K): 10 mM HEPES, 150 mM NaCl, 3 mM EDTA, 0.05% Tween 20, pH 7.4, 20 C; RsmQ 100 and 1000 nM (Fig 4: 100-1000 nM)
row,Molecule,binding signal
1,TATAAGACTCGTACCCCGGAGCGCTCTCGCCTACCCTACGTCCTCCTGC [PFLU4968],< 50 %Rmax
2,AAGACCAGATCCAGGGATATGACGACGCACCTACCCTACGTCCTCCTGC [PFLU5652],< 50 %Rmax
3,CGCATCATTTACATGGAAGCGAGTAATCACCTACCCTACGTCCTCCTGC [PFLU3467],< 50 %Rmax
4,TCTGTAATGACCACGGAAAAAGTGAAGTACCTACCCTACGTCCTCCTGC [PFLU4891],< 50 %Rmax
5,GTGAGGACTTTAATGGACGACAACAAGAACCTACCCTACGTCCTCCTGC [PFLU1189],< 50 %Rmax
6,GAAACATTCCGAACGGAGAAAAAACTGGCCCTACCCTACGTCCTCCTGC [PFLU2486],< 50 %Rmax
7,TGCCCCCTTCAGATGGAGTTTCCCCCCGCCCTACCCTACGTCCTCCTGC [PFLU5986],< 50 %Rmax
8,TTCTAATCGCCTAAGGAGCATTGAGATGTCCTACCCTACGTCCTCCTGC [PFLU4548],< 50 %Rmax
9,ACTCAACCAGGAATAAGGAATACAAGAAACCTACCCTACGTCCTCCTGC [PFLU0296],< 50 %Rmax
10,CGCCCGTGATCCCATGGAAACTCGAAGACTCCTACCCTACGTCCTCCTGC [PFLU0998],< 50 %Rmax
11,AACGGTTCAAATATTCAGAGGATCCAGCTCCTACCCTACGTCCTCCTGC [PFLU6118],< 50 %Rmax
12,CACCAACCCTGCACGTGGAGAGAACAACACCTACCCTACGTCCTCCTGC [PFLU5567],< 50 %Rmax
13,AGTCCTTTAGGCAAGGAGTTAATTGTCGTCCTACCCTACGTCCTCCTGC [PFLU5529],< 50 %Rmax
14,GACATTAATCATATGGAGACACCCTCATGCCTACCCTACGTCCTCCTGC [PFLU4688],< 50 %Rmax
15,TCATTACCCTGCAGGGACCAAATCAACTGCCTACCCTACGTCCTCCTGC [PFLU5860],< 50 %Rmax

# Same assay, conditions: mean of 1.178 and 0.729; SPR (ReDCaT SA chip, Biacore 8K): 10 mM HEPES, 150 mM NaCl, 3 mM EDTA, 0.05% Tween 20, pH 7.4, 20 C; RsmQ 100 and 1000 nM (Fig 4: 100-1000 nM)
row,Molecule,binding signal
1,GGGAAAAAATGTGGGCGGGTCATACCGCCCCTTTTTTTCCTACCCTACGTCCTCCTGC [RsmZ 127-end],0.95 %Rmax

# Same assay, conditions: up to 1000 nM protein; SPR (ReDCaT SA chip, Biacore 8K): 10 mM HEPES, 150 mM NaCl, 3 mM EDTA, 0.05% Tween 20, pH 7.4, 20 C; RsmQ 100 and 1000 nM (Fig 4: 100-1000 nM)
row,Molecule,binding signal
1,GGAAGTTTTACTAGGGAAGTTGCTATTGCCCTACCCTACGTCCTCCTGC [PFLU4443 (fleQ)],> 50 %Rmax
2,GAAGACTTCGGCATGGAAGCGGCGCGAACCCTACCCTACGTCCTCCTGC [PFLU4726],> 50 %Rmax
3,CGCCATTCTTCAAGGGAGAGCCGTGTGGCCCTACCCTACGTCCTCCTGC [PFLU1516],> 50 %Rmax
4,AACAATAATGCACATGGAGTAGCGTCGATGCCTACCCTACGTCCTCCTGC [PFLU0923],> 50 %Rmax

# Same assay, conditions: up to 1000 nM protein; highest of the genomic oligos; SPR (ReDCaT SA chip, Biacore 8K): 10 mM HEPES, 150 mM NaCl, 3 mM EDTA, 0.05% Tween 20, pH 7.4, 20 C; RsmQ 100 and 1000 nM (Fig 4: 100-1000 nM)
row,Molecule,binding signal
1,TTATTATTCGCCAGGGACGGCATTCGGGGCCTACCCTACGTCCTCCTGC [PFLU3378],> 50 %Rmax

# From PMC9928087, “Plasmids manipulate bacterial behaviour through translational regulatory crosstalk”
